± gives the half width of the 95% confidence interval.
Assays:
[1] = folding stability dG unfold from trypsin proteolysis; higher = more stable
Summary of the method: (§1)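 Bayesian fitting of sequencing counts gave K50 for each design. Unfolding free energy followed by setting this against a sequence-predicted unfolded-state K50 and a shared folded-state K50, either per protease or with trypsin and chymotrypsin combined. The designs, under 80 residues and lacking cysteine, were digested in a PA-tagged cDNA display format at 11 threefold-diluted protease concentrations and without protease, and only those with AlphaFold2 dimer inter-PAE above 15 were kept.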

[2] = folding stability dG unfold from chymotrypsin proteolysis; higher = more stable
Summary of the method: as §1

[3] = folding stability dG unfold (combined trypsin and chymotrypsin); higher = more stable
Summary of the method: as §1

| Sequence | folding stability dG unfold [1] | folding stability dG unfold [2] | folding stability dG unfold [3] |
| --- | --- | --- | --- |
| NKRIKIFIGGDDPSMAEQIQQWLQDNGYNVEVHVFTSPEDMKKAREWAEQNDIVIVIQVPPPPPKDPGDNNS [r1_497_TrROS] | 2.48 ± 0.12 kcal/mol | 3.487 ± 0.024 kcal/mol | 3.3 ± 0.074 kcal/mol |
| NWYIDIDEIKEAINDAPPGDEVELPFKFYDPDDGQKFKFRVTVEVNPNGKLTSVRIQHPGSGKPHAEINLKS [r1_165_TrROS] | 0.636 ± 0.07 kcal/mol | 1.25 ± 0.13 kcal/mol | 0.982 ± 0.11 kcal/mol |
| PEKVILVEVPAGEELTEEELKELAEALGLEVEIEKVKVTVTVTVEVTLPDGKKVKVETTETRTVVLVTVKDS [r1_238_TrROS_Hall] | 2.66 ± 0.077 kcal/mol | 3.42 ± 0.14 kcal/mol | 3.16 ± 0.14 kcal/mol |
| PFRVMVDLERDPEDGWYKVTIMVQAKDGRPITPELIENAAREIFKQGFPIKKIKLEPYPNGYVHFKIEIPLS [r1_408_TrROS] | 2.15 ± 0.035 kcal/mol | 2.88 ± 0.037 kcal/mol | 2.65 ± 0.064 kcal/mol |
| PKEIIEFAKKNGFKVKIEPVKVGSEEKAKKLAEEIKKKNNGKVFIIKNPKTGEAVYRIEIYPLKVPKNKKLS [r1_179_TrMRF] | 1.37 ± 0.14 kcal/mol | 2.1 ± 0.22 kcal/mol | 1.9 ± 0.43 kcal/mol |
| PKIEITRVEYHPNEGYYRVTVKLPGKDVSIYMGPENGMMQVYFPGNGREREFPFDSMDDAVDRAKELLKERS [r1_177_TrROS] | 1.33 ± 0.12 kcal/mol | 1.55 ± 0.11 kcal/mol | 1.23 ± 0.28 kcal/mol |
| PLTFPALVRNPLEDRWEEVTVTLHPDGTLTVTHRGRPLASVRVVTRPPPEVELVPVRDADGVERLGLRTRGS [r1_496_TrMRF] | 0.346 ± 0.071 kcal/mol | 1.21 ± 0.08 kcal/mol | 0.964 ± 0.074 kcal/mol |
| PNMKMEWIQIPPGDLNDPVKIEAPLPPGTQIMIWVHDNGNGEWRPIFTVNNDEITIKNLPDADHVWVWVIKS [r1_224_TrROS] | 1.83 ± 0.13 kcal/mol | 2.71 ± 0.1 kcal/mol | 2.47 ± 0.28 kcal/mol |
| PPPDVPVETETKTSTSTLPDGSRLTTTTTTTRAPNGYYYDTTSVTTTVAPDGTVTTTSTSTTKGPLPAALLS [r1_129_JUSTAS] | 1.81 ± 0.12 kcal/mol | 1.51 ± 0.072 kcal/mol | 1.5 ± 0.27 kcal/mol |
| PPTSPEFRKALENIKKVDIEIEPYPNDGMVRMSIELKFPDKPVEIDIHYQYDPDGKINGMWARLDGKWIPIS [r1_274_TrROS] | 1.1 ± 0.091 kcal/mol | 1.99 ± 0.079 kcal/mol | 1.85 ± 0.2 kcal/mol |
| PWRPIMITVRANPNLKVDIYPPNGPQEEIPVDSPEDALKKAQKLLPPNYPIMVKVQNEGKPIATFPFWIPPS [r1_276_TrROS] | 2.84 ± 0.36 kcal/mol | 2.41 ± 0.14 kcal/mol | 2.61 ± 0.52 kcal/mol |
| QRTVYIPIRGMPPDQMVDMIRMALRQAREKGHPNRTIRIWMPGPPEQRERARRYIKELADEPGLNVTIEGWS [r1_387_TrROS] | 1.71 ± 0.029 kcal/mol | 1.85 ± 0.08 kcal/mol | 1.84 ± 0.055 kcal/mol |
| RKIEINIWRNENHWYVRIKLEHPDGKEQELMFPMDSWDEAREFIRGILANLPPNNVKIEDIEIYPPNGQPIS [r1_169_TrROS] | 2.85 ± 0.076 kcal/mol | 4.329 ± 0.023 kcal/mol | 3.87 ± 0.069 kcal/mol |
| SAAAAVAAAVAATLEALLPPGYRITAVTAEVAPDGTVTIPVTVEGPDGVPTLVVVTVDLATGEITVTVFGSA [r9_219_TrMRF] | 3.17 ± 0.16 kcal/mol | 4.63 ± 0.21 kcal/mol | 4.22 ± 0.22 kcal/mol |
| SAAEIDEDGTIRIVLSEEAVKNMSEEELKALAEELAKLLPPGAKVEIKIVKPKPVKEEKKLYDKDGKEVSAG [r14_312_TrROS_Hall] | 1.19 ± 0.083 kcal/mol | 0.0971 ± 0.054 kcal/mol | 0.788 ± 0.15 kcal/mol |
| SAAMLFEKKTGIKVDVSLVPPEQISQLPPSYTVTPEGDVVVVTTVTTLPLSSYPVKLPPVYDPNTLKLLSAG [r14_126_JUSTAS] | 0.146 ± 0.12 kcal/mol | -0.376 ± 0.19 kcal/mol | -0.0133 ± 0.11 kcal/mol |
| SAAPADNPVLVATLTVTVTRPVSFTSPDGSTGTVPETETRTLVLVADAGNDPEALERALELARRLAETVSAG [r14_830_TrMRF] | 2.73 ± 0.076 kcal/mol | 4.04 ± 0.076 kcal/mol | 3.51 ± 0.099 kcal/mol |
| SAAPGAEVIEEKEIEVGGYTVTIVYNKDTDTVTIFVRNPDGTITEFTIDADTLEITEVREIKLPPGVELSAG [r14_676_TrROS_Hall] | 2.24 ± 0.084 kcal/mol | 3.35 ± 0.06 kcal/mol | 3 ± 0.12 kcal/mol |
| SAATLPPGTKVLTLTVTVRVPPGVSVEDLAAALAAELRRRLGPGAKITVTVTYDPETDTLTVTVTVVLPPSA [r9_657_TrROS_Hall] | 3.53 ± 0.091 kcal/mol | 4.66 ± 0.078 kcal/mol | 4.38 ± 0.081 kcal/mol |
| SAAVITLETENVTATSTLLEDGSVLVDVVEFYEDGYVSVVKAVIGPDGEIKVVERVVFPVPPPVPPPDASAG [r14_42_TrMRF] | 2.49 ± 0.094 kcal/mol | 2.3 ± 0.094 kcal/mol | 2.36 ± 0.18 kcal/mol |
| SAAVPSDLTLTTLETKKEKFDDNEYTVVKSVLLRPGAPGATVTEYTTVYKGDKVVETKPSERTVSPALLSAG [r14_651_JUSTAS] | -0.897 ± 0.27 kcal/mol | 0.209 ± 0.13 kcal/mol | -0.0404 ± 0.15 kcal/mol |

| Sequence | folding stability dG unfold [1] | folding stability dG unfold [2] | folding stability dG unfold [3] |
| --- | --- | --- | --- |
| SADIKIDDIETQENPDGYEWYMITINFPDPKKFKEKLKKHGVNPEWDPNDPDQVEIWFPREDIQEILKLSAG [r14_777_TrROS] | 0.328 ± 0.21 kcal/mol | 0.884 ± 0.28 kcal/mol | 0.665 ± 0.36 kcal/mol |
| SADMVMFPMTGEFHFPGWRIKVEITLMFHFTPNGKFGPNFHPMIKIEIVPPPPPPKITEEEADKANENGSAG [r14_442_TrROS] | 3.03 ± 0.22 kcal/mol | 4.13 ± 0.19 kcal/mol | 3.59 ± 0.26 kcal/mol |
| SADPNYHYKYKIKIEIAWFPPDDLEKLPPGMIMIPFDDHWIMIVIKLEPVEREPPPPPPEYDPETGDWKSAG [r14_126_TrROS] | 2.5 ± 0.43 kcal/mol | 3.38 ± 0.17 kcal/mol | 3.23 ± 0.46 kcal/mol |
| SADSVPIKLTFTFEVPEEIYEAAVKAIEDIFKDLGLEVEFEAKAEPGEEGVKVTVELNLTIPPNNPNLISAG [r14_76_TrMRF] | 2.44 ± 0.2 kcal/mol | 3.31 ± 0.096 kcal/mol | 3.07 ± 0.16 kcal/mol |
| SADVVVIHARSPEELRAALEEARKEGKTVRIVVSREELDELKALLPEDVKIEVLKNENGEELVVIEVKVSAG [r14_127_TrROS_Hall] | 4.32 ± 0.23 kcal/mol | 3.11 ± 0.28 kcal/mol | 4.15 ± 0.43 kcal/mol |
| SAEEAAKNFKPIRIRLRDPRGRLYEVERIELTPDGRLLITLRLPNETRTYLIEPDHPFPLPPDLIIEVEGSA [r9_993_TrMRF] | 2.74 ± 0.049 kcal/mol | 3.59 ± 0.043 kcal/mol | 3.34 ± 0.08 kcal/mol |
| SAEEEEVVEVELEIEIEMTPEELEELIEALRKAAEELGFEIEDIEIRVERKEDGTLRVTIRVKIRLPKPSAG [r14_109_TrROS_Hall] | 3.68 ± 0.13 kcal/mol | 4.69 ± 0.48 kcal/mol | 4.2 ± 0.23 kcal/mol |
| SAEKTLTIPITLENGATLTITVYEDRIEATLEVDGLTGTGYTLPDGTVVLNLRAPGNKPIASPVFTLDLSAG [r14_213_TrMRF] | 1.73 ± 0.058 kcal/mol | 2.48 ± 0.06 kcal/mol | 2.31 ± 0.12 kcal/mol |
| SAELEELLKKAEELAKKNNVEVEVEVKLELEPVKVTEYKLNKDGKPVEKKEEEELELRLEIKVKIRPKKSAG [r14_728_TrROS_Hall] | 1.26 ± 0.2 kcal/mol | 3.22 ± 0.2 kcal/mol | 2.58 ± 0.35 kcal/mol |
| SAELKISKIDVSSLPDGSKKVTVNFSAPNFKVTITLDKSGNVSVEVSPEARKLPPEFFNLILNLAKELGSAG [r14_555_TrMRF] | 3.64 ± 0.15 kcal/mol | 4.14 ± 0.1 kcal/mol | 3.96 ± 0.1 kcal/mol |
| SAELLDALKKNGWTIRIPIKHPGNGETWPMPFRIEPDGDGWKISIPPPNGKPHPFKIEDIEIMPPEDLKSAG [r14_427_TrROS] | 0.723 ± 0.11 kcal/mol | 0.406 ± 0.42 kcal/mol | 0.561 ± 0.2 kcal/mol |
| SAEMKIEKIEVKPLEEEPELVEITIKVKDPEKLKEALEKAGFTVEEVDEEEGKLTITMSREQLEKLLKASAG [r14_777_TrROS_Hall] | 1.85 ± 0.1 kcal/mol | 1.68 ± 0.14 kcal/mol | 1.91 ± 0.31 kcal/mol |
| SAEPTLAEATNDPATGTATANFPLENLPPDYRVLAVNLETGEVTEFPPDGEVTITAPEGPVLVKLFWKGSAG [r14_134_TrMRF] | 0.608 ± 0.13 kcal/mol | -0.512 ± 0.55 kcal/mol | 0.213 ± 0.15 kcal/mol |
| SAETKAEVFRFGDVLVVVTEERVTTPDGSERPVYTVTLLVYDPSTGKWTPFSRPFSSKEDAAKALSSGVSAG [r14_500_TrMRF] | 1.52 ± 0.07 kcal/mol | 2.22 ± 0.083 kcal/mol | 1.98 ± 0.15 kcal/mol |
| SAETRTLTIRIPAKDLTPEQIRALLRALLPEDATITEVRIERDEDGYITVTIVVTNPDGSKQEIRLVFPSAG [r14_30_TrROS_Hall] | 2.527 ± 0.024 kcal/mol | 2.64 ± 0.031 kcal/mol | 2.6 ± 0.085 kcal/mol |
| SAETVTITLPGATITVEKVDGKWIATVTKVEPGADKVTVEVTLTKVDEDGNTTTVTETVTIDAKTGKVLSAG [r14_724_TrROS_Hall] | 2.7 ± 0.32 kcal/mol | 2.92 ± 0.19 kcal/mol | 2.81 ± 0.23 kcal/mol |
| SAETVVTPRRSTLPDGTRLEEDVVTLPDGTTVTPVRVVRRDPETGREVVEFWVRTTDPATGTTTTTPLPSAG [r14_324_JUSTAS] | -0.198 ± 0.12 kcal/mol | 1.72 ± 0.059 kcal/mol | 1.23 ± 0.051 kcal/mol |
| SAEVEIEVVEKDGKLYLVIRVRFPPGLKPGDKVTLTLTLPNGAKVTITRDKDGTRYITIVVELKDLEKLSAG [r14_754_TrROS_Hall] | 3.94 ± 0.41 kcal/mol | 5.23 ± 0.13 kcal/mol | 4.69 ± 0.22 kcal/mol |
| SAEVEVLPFEFELPNGLRVEVHLVRLPDGTVVAPVLLVEYDPVTGEPRLSRAVAVFDPSTGKVTVLPLDSAG [r14_324_TrMRF] | 3.01 ± 0.047 kcal/mol | 2.993 ± 0.017 kcal/mol | 2.97 ± 0.042 kcal/mol |
| SAEVYEFGNAVVVVTTSPDGTVRVYVFNPETGEVTEIEIHPDTPGEYKVRPLGNGEVKEATVPVSDILPVSA [r9_1071_TrMRF] | 0.851 ± 0.051 kcal/mol | 1.42 ± 0.2 kcal/mol | 1.19 ± 0.23 kcal/mol |
| SAFNIEIEEVDPNEIYIKIDATPEQLEEIAEDIMKNFPGYKVKWEWDDEQGKIWFRIRPVPPPPPEDQNSAG [r14_600_TrROS] | 1.14 ± 0.1 kcal/mol | 1.97 ± 0.13 kcal/mol | 1.96 ± 0.29 kcal/mol |

— the supplement of paper PMC12764529
